Source: article PMC10512297, “The Penicillium chrysogenum tom1 Gene a Major Target of Transcription Factor MAT1-1-1 Encodes a Nuclear Protein Involved in Sporulation”

Columns and labels:
[1] = biological target: T1, GST-MAT1-1-1;MAT1-2-1 (GST removed) (Penicillium chrysogenum;Penicillium …, UniProt B1GVB9;B1GVC0 1-342;1-303, |); assay: EMSA; 4 uM each protein; complex faster than with GST-MAT1-2-1; EMSA: 20 ul reaction, 20 min at room temperature, native 4% polyacrylamide gel, 120 V 2-3 h; buffer, salt and pH not given (Ramsak et al. 2021 protocol); conditions: protein: recombinant;recombinant; tags: N-terminal GST;none (GST removed by TEV protease); label: 32P (probe); blunt
T1 sequence 1: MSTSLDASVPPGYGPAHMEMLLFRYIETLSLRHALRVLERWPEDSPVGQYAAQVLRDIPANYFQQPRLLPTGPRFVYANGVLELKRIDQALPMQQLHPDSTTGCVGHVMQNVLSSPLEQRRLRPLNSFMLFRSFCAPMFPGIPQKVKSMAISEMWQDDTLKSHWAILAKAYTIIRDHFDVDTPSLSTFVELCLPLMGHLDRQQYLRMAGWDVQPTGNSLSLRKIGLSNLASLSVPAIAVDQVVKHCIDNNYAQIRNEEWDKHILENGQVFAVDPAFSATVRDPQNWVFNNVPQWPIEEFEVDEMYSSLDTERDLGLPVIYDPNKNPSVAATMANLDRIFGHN
T1 sequence 2: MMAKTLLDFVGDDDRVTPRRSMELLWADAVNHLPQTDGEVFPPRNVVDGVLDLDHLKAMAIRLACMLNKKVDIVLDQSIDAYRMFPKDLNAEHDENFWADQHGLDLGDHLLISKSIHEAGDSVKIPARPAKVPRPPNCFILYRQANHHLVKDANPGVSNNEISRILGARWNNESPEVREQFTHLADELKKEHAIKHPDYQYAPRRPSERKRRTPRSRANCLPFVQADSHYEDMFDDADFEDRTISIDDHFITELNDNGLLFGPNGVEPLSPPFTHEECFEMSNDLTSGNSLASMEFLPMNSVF

[2] = biological target: T2, GST-MAT1-2-1 (Penicillium chrysogenum PC3, UniProt B1GVC0 1-303); assay: EMSA; 7 uM protein; more protein needed than for GST-MAT1-1-1; self-competition by unlabelled tom1-2; EMSA: 20 ul reaction, 20 min at room temperature, native 4% polyacrylamide gel, 120 V 2-3 h; buffer, salt and pH not given (Ramsak et al. 2021 protocol); conditions: protein: recombinant; tags: N-terminal GST; label: 32P (probe); blunt
T2 sequence: T1 sequence 2

[3] = biological target: T3, GST-MAT1-1-1 (Penicillium chrysogenum, UniProt B1GVB9 1-342); assay: EMSA; 2.5 uM protein; self-competition by unlabelled tom1-2; EMSA: 20 ul reaction, 20 min at room temperature, native 4% polyacrylamide gel, 120 V 2-3 h; buffer, salt and pH not given (Ramsak et al. 2021 protocol); conditions: protein: recombinant; tags: N-terminal GST; chain copies: 2; label: 32P (probe); blunt
T3 sequence: T1 sequence 1

[4] = biological target: T4, GST-MAT1-1-1;GST-MAT1-2-1 (Penicillium chrysogenum;Penicillium …, UniProt B1GVB9;B1GVC0 1-342;1-303, |); assay: EMSA; 4 uM each protein; slower migrating complex; EMSA: 20 ul reaction, 20 min at room temperature, native 4% polyacrylamide gel, 120 V 2-3 h; buffer, salt and pH not given (Ramsak et al. 2021 protocol); conditions: protein: recombinant;recombinant; tags: N-terminal GST;N-terminal GST; label: 32P (probe); blunt
T4 sequence 1: T1 sequence 1
T4 sequence 2: T1 sequence 2

Measured: binding result

B1: tom1-2 (dsDNA)
DNA 1: TCACGTGATCTCTATTGAGAACAATAGAA
DNA 2: TTCTATTGTTCTCAATAGAGATCACGTGA
binds: [1] | [2] | [3] | [4]
